This note sets out measurements from patent US20120171209A1 (Ablynx, published 2012).

The target in assay [1] is T1, human soluble IL-6R, recombinant (human, UniProt P08887 20-358).
T1 construct: also called human IL6-R; bio-IL-6R
T1 sequence (looked up): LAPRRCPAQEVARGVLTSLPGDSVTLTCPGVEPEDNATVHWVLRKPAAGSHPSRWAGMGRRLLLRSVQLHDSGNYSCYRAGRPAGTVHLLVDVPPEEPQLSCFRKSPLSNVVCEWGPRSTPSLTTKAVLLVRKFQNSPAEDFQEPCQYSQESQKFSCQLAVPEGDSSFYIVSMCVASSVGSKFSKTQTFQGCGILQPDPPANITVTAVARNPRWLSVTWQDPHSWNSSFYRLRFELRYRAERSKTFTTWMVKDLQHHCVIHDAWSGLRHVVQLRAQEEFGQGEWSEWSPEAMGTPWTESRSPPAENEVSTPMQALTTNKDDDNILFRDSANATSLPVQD
Briefly: Biacore, periplasmic extract. As to the method: Periplasmic extracts of representative family clones were also analyzed on Biacore. Dissociation curves were used to calculate koff rates. koff rates are depicted in Table C-6.
Background: Surface plasmon resonance follows binding to a sensor surface in real time, without labels.

Assay [2] addresses cynomolgus IL-6R used in Biacore (cynomolgus monkey). In words: Biacore, periplasmic extract.
Assay [3] deals with IL-6R on the surface of TF-1 cells (UniProt P08887). Briefly: cell-based or functional assay.
Chain of IL-6R on the surface of TF-1 cells (P08887 20-468 limits assumed): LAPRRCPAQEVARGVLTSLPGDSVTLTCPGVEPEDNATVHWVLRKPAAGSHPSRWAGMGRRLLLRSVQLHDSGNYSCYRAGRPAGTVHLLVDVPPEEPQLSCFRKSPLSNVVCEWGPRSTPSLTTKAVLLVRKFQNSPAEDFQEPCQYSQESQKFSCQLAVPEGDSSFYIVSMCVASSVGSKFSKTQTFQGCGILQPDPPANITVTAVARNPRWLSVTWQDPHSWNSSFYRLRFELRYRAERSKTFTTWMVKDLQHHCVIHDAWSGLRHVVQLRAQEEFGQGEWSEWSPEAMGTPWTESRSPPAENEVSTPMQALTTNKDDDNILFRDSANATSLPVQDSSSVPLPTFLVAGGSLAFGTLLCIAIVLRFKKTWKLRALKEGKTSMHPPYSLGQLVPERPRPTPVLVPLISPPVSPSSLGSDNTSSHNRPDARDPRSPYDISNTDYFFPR
Assay [4] concerns the target T2, cyno IL-6R on CHO-K1 cells, clone CyIL6R 405 (cynomolgus monkey (extracellular domain), UniProt A0A2K5WN54 60-499).
T2 construct: whole, on cells; chimeric construct on cells; also called CHO K1-cynomolgous IL-6R
T2 sequence: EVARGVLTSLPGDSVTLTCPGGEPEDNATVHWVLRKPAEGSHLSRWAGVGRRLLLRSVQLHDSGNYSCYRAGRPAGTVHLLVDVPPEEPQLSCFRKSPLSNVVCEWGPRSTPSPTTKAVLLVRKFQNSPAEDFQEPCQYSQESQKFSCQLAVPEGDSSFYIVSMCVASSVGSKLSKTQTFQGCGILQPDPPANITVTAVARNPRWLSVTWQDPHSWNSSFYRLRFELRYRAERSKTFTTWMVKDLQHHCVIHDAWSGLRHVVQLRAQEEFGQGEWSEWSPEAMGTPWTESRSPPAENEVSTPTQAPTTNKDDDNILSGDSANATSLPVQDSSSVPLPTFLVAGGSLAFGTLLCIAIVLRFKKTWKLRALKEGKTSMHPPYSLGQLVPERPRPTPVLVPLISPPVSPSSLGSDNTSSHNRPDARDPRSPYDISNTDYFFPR
In words: FMAT on CHO cells, competitor labelled Reference IgG. As for the experimental part:
Eleven inhibitory Nanobodies were tested in competition with labelled Reference IgG for binding to
CHO cells expressing hIL-6R or cynoIL-6R.

Assay [5] deals with cynomolgus soluble IL-6R, native, in cynomolgous plasma (cynomolgus monkey). In words: ELISA 2, cyno plasma sIL-6R, periplasmic extract, competitor IL-6. On the technique in general: An ELISA detects its analyte on a solid surface through an enzyme-linked reagent.
The target in the next assay is T3, hybrid IL-6R (human, with rat sequence in domain I).
T3 construct: produced in HEK.EBNA cells and purified
T3 chain: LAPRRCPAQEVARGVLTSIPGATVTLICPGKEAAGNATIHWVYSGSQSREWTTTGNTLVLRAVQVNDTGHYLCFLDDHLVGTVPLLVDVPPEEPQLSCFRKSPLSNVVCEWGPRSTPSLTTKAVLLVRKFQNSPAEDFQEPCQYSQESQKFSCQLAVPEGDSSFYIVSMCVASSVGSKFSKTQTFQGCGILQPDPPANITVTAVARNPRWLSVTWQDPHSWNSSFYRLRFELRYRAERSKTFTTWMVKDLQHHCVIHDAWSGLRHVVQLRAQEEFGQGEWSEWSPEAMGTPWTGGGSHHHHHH
Briefly: sandwich ELISA, coated hybrid IL-6R, anti-myc-HRP detection. As to the method:
The panel of purified Nanobodies was tested by standard sandwich ELISA with coated human IL-6R versus hybrid IL-6R (see Example 3). Anti-myc-horseradish peroxidase (AbD Serotec, Oxford, UK) was used as a detection antibody. Only Nanobodies with koff rates that were low enough to give a positive signal towards human IL-6R are depicted.

Broadly, the koff is a measure of how fast the partners let go of each other. The IC50 is the midpoint of a concentration-inhibition curve.

B1: IL6RPMP103H9 (VHH)
VHH: EVQLVESGGGLVQPGGSLRLSCAASKSIFDINAMYWHRQAPGKQRESVASITSGGMRNYADSVKDRFTISKDNAKNTVYLQMNGLKPDDTAVYYCGLGRYEGGVWRDYWGQGTQVTVSS
notes: family 13; also called PMP103H09; IL6R103H9
B1: the koff in assay [1] and in assay [2] was 0.01 s⁻¹ each time. In addition, in assay [3], the IC50, IL-6-dependent proliferation of TF-1 cells was determined as 1470 nM.

B2: IL6RPMP104B8 (VHH)
VHH: EVQLVESGGGLVQAGGSLRLSCAASGFAFDDYAIGWFRQAPGKEREGVSSISSSNGNTYYADSVRGRFTISSDNAKNTVYLQMNSLKPEDTGVYYCAAIWGIFFNEKMPVGAYDYWGQGTQVTVSS
notes: family 3; also called PMP104B08; IL6R104B8
With B2, the koff in assay [1] and in assay [2] was 0.01 s⁻¹ in each case. This molecule yielded an IC50, IL-6-dependent proliferation of TF-1 cells in assay [3] of 245 nM.

B3: IL6RPMP103C4 (VHH)
VHH: EVQLVESGGGLVEAGGSLRLSCAAAGRTLSSYSMAWFRQAPGKEREFVAIIRGNPSRTYHSDSVKGRFTASRDNAKNTVYLQMNRLEPEDTAVYYCAADPPPFASDYSAPQSYDYWGQGTQVTVSS
notes: family 19; also called IL6R103C4
With B3, the koff in assay [1] and in assay [2] was 0.001 s⁻¹ each time. In assay [4], this molecule gave an IC50 of 30 nM. Besides, the IC50, IL-6-dependent proliferation of TF-1 cells in assay [3] was found to be 15.6 nM.

B4: IL6RPMP107H2 (VHH)
VHH: KVQLVESGGGLVQPGGSLRLSCAASGFTFSSYAMSWVRRAPGKGLEWVSAINSDGTGSSYAPFVTGRFTASRDNAKNTLYLQMNSLKPEDTAVYYCTNSNRYDYADFSAVRGQGTQVTVSS
notes: family 27; also called IL6R107H2
Turning to B4, the OD450 ratio sample/blank in assay [5] is 0.6. Further, the koff in assay [1] stood at 0.0001 s⁻¹.

B5: IL6RPMP101A5 (VHH)
VHH: EVQLVESGGGLVQAGGSLRLSCTASGRTFSDYDMGWFRQAPGKERECVAIIDTNGDNTLIVGSVKGRFAISSDNAKNTVYLQMNSLLPEDTAVYTCAAGVWSSLRHTAANYWGQGTQVTVSS
notes: family 5; periplasmic extract
Regarding B5, the results for the koff in assay [1] and in assay [2] were 0.00027 s⁻¹ and 0.00045 s⁻¹, respectively.

B6: IL6RPMP104B9 (VHH)
VHH: EVQLVESGGGLVQAGGSLRLSCTASGRTFSDYDMGWFRQAPGKERECVAIIDTNGDNTLIVGSVKGRFAISSDNAKNTVYLQMNSLLPEDTAVYTCAAGVWSSLRHTAANYWGQGTQVTVSS
notes: family 5; periplasmic extract
Turning to B6, the koff is 0.00023 s⁻¹ in assay [1] and 0.00074 s⁻¹ in assay [2].

B7: IL6RPMP104E4 (VHH)
VHH: EVQLVESGGGTVQAGGSLKLSCAASGRTFTNYAMGWFRQAPGKEREFVAAIAYATHFADSVKGRFTISRGNAKNTVYLQMNSLKPEDTAVYYCAADLSLSKMVSKITSDMDYWGKGTLVTVSS
notes: family 8; also called PMP104E04; IL6R104E4
As for B7, the koff in assay [1] was found to be 0.00075 s⁻¹; in assay [2] it was 0.00045 s⁻¹. For the same molecule, in the assay with hybrid IL-6R, the binding result is given as “no binding”.

B8: IL6RPMP120A5 (VHH)
VHH: EVQLVESGGGLVQAGGSLSLSCATSGRTISDDTMAWFRQAPGKEREFVAIITFNGARTHYSDSVRDRFTISRDNAKNTVYLQMNSLKSEDTAVYYCAASTKYYSSTYNYIHPAFYDIWGQGTQVTVSS
notes: family 28; also called IL6R120A5
In assay [4], B8 returned an IC50 of 27 nM. This molecule also had an IC50, IL-6-dependent proliferation of TF-1 cells in assay [3] of 5.59 nM.

B9: IL6RPMP103C7 (VHH)
VHH: EVQLVESGGGLVQAGGSLSLSCATSGRTISDDTMAWFRQAPGKEREFVATITFSGARTHYSDSVRDRFTISRDNAKNTVYLQMDSLKSEDTAVYYCAASTKYYSSTYNYIHPAFYDIWGQGTQVTVSS
notes: family 28
Molecule B9 yielded an IC50 in assay [4] of 75 nM. The same molecule came in with an IC50, IL-6-dependent proliferation of TF-1 cells in assay [3] of 61.3 nM.

B10: IL6RPMP107A1 (VHH)
VHH: EVQLVESGGGLVQAGGSLNLSCNASGDIGSINAMGWYRQAPGQQREWVAVITDTDSTIYPDSVKGRFAISRDGAKNTVHLRMSSLKPEDTAVYYCNAYQAGWGDYWGQGTQVTVSS
notes: also called IL6R107A1
For the molecule B10, the koff in assay [1] stood at 0.00075 s⁻¹; in assay [2] it was 0.01 s⁻¹. Moreover, the IC50, IL-6-dependent proliferation of TF-1 cells in assay [3] came to 4.05 nM.

B11: IL6RPMP100G11 (VHH)
VHH: EVQLVESGGGLVQAGGSLRLSCAASGRGFSPYTMGWFRQAPGKERVFVAGISWSTGIAHYTDSVKGRFTISRDNAKNTGSLQMNSLKPEDTAVYYCAVVQTTKGNYDYWGQGTQVTVSS
notes: family 4; also called IL6R100G11
As to B11, the results for the koff in assay [1] and in assay [2] were 0.00027 s⁻¹ and 0.00045 s⁻¹, respectively. This molecule showed an IC50, IL-6-dependent proliferation of TF-1 cells in assay [3] of 116 nM.

B12: IL6RPMP120G6 (VHH)
VHH: EVQLVESGGDLVQTGGSLRLSCAASGITVSDRAMGWYRQAPGKQREMVAGVSRGGMTSYADSVKGRLTISRDNAKNSVYLQMNSLNPEDTAVYYCSAYYRYGSSVPQYWGQGTQVTVSS
In assay [3], B12 showed an IC50, IL-6-dependent proliferation of TF-1 cells of 10.2 nM.

B13: IL6RPMP107B4 (VHH)
VHH: EVQLVESGGGLVQAGGSLRLSCVASGLRLNMHRMGWFRQAPGKEREFVARIFTDDGDSYYADSVQGRFTISGDNAKNTVYLQMNSLKPEDTGVYFCAAGYMSGAESPIGYDNWGQGTQVTVSS
notes: family 17; periplasmic extract; also called PMP107B04
Turning to B13, the koff in assay [1] and in assay [2] was 0.01 s⁻¹ in each case.

B14: reference Fab (Fab, V domains shown)
VH: QVQLQESGPGLVRPSQTLSLTCTVSGYSITSDHAWSWVRQPPGRGLEWIGYISYSGITTYNPSLKSRVTMLRDTSKNQFSLRLSSVTAADTAVYYCARSLARTTAMDYWGQGSLVTVSS
VL: DIQMTQSPSSLSASVGDRVTITCRASQDISSYLNWYQQKPGKAPKLLIYYTSRLHSGVPSRFSGSGSGTDFTFTISSLQPEDIATYYCQQGNTLPYTFGQGTKVEIKR
notes: expressed in the periplasm of E. coli
For B14, the IC50 in assay [4] worked out at 0.8 nM.

B15: IL6RPMP105E1 (VHH)
VHH: EVQLVESGGGLVQAGGSLRLSCAASGSIFSIKAMGWYRQAPGKQRELVARITSGGSTYYADSVKGRFTISRDNAKNTVYLQMNSLKPEDTAVFYCNAIVTDSDYDLGNDYWGQGTQVTVSS
notes: family 7; also called PMP105E01; IL6R105E1
For B15, the values for the koff in assay [1] and in assay [2] were 0.00041 s⁻¹ and 0.001 s⁻¹, respectively. The IC50 in assay [4] was found to be 13 nM. In assay [3], this molecule returned an IC50, IL-6-dependent proliferation of TF-1 cells of 6.2 nM.

B16: IL6RPMP101B6 (VHH)
VHH: EVQLVESGGGLVQAGGSLRLSCAASGSDFSIKAMGWYRQAPGKQRELVARITSGGSTVYADSVKGRFTISRDNAKNTVYLQMNSLKPEDATVYYCNAIVTYSDYDLGNDYWGQGTQVTVSS
notes: family 7; periplasmic extract
As to B16, the results for the koff in assay [1] and in assay [2] were 0.00058 s⁻¹ and 0.001 s⁻¹, respectively.

B17: IL6RPMP107A9 (VHH)
VHH: EVQLVESGGGLVQAGGSLRLSCAASGGIFSDMFMGWFRQAPGKSRESVARISPSGNTFYQDSVRGRFTISTDNAKNTVYLQMNNLKPEDTAVYYCAANVGVTGSYEYWGQGTQVTVSS
notes: family 21; also called IL6R107A9
Consider B17, for which the koff in assay [1] and in assay [2] was 0.01 s⁻¹ each time. The IC50, IL-6-dependent proliferation of TF-1 cells in assay [3] was determined as 349 nM.

B18: IL6RPMP101B12 (VHH)
VHH: EVQLVESGGGLVQPGGSLRLSCAASGVTLDYYAIGWFRQAPGKEREGVSSISSNDGSTFYADSVKGRFTISRDKAKNTVYLQMNSLKPEDTAVYYCAATYLTAQAVGVPVAYYEFDYWGQGTQVTVSS
notes: family 2; also called IL6R101B12
For B18, the binding result with hybrid IL-6R is listed as “no binding”.

B19: IL6RPMP108E1 (VHH)
VHH: EVQLVESGGGLVQAGGSLRLSCAASGFTFDDYDIGWFRQAPGKEREGVSGISSSDGNTYYADSVKGRFTISSDNAKNTVYLQMNSLKPEDTAVYYCAAEPPDSSWYLDGSPEFFKYWGQGTQVTVSS
notes: family 20; also called PMP108E01
With B19, the off-rate (koff) was found to be 0.0001 s⁻¹ in assay [1] and 0.001 s⁻¹ in assay [2]. In addition, the IC50, IL-6-dependent proliferation of TF-1 cells in assay [3] worked out at 0.149 nM.
